Measured values reported in patent US20130011412A1 (Genentech, published 2013).

Legend:
[1] = target: T1, recombinant human lymphotoxin-α homotrimer (human LTα3) (human, UniProt P01374 35-205); experiment: plate ELISA on coated LTα
T1 construct: Coated on plates in the ELISAs; also called rhLTα; lymphotoxin-α3 trimer
T1 sequence (looked up): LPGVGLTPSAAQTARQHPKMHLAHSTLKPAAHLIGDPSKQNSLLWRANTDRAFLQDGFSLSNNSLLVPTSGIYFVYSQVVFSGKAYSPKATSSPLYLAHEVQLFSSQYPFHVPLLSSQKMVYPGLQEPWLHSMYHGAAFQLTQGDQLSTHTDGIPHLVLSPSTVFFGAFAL

[2] = target: T1, recombinant human lymphotoxin-α …; experiment: BIACORE (rhLTα)
[3] = target: T1, recombinant human lymphotoxin-α …; experiment: plate ELISA on coated human LTα
[4] = target: T1, recombinant human lymphotoxin-α …; experiment: plate-based ELISA against LTα
[5] = target: T1, recombinant human lymphotoxin-α …; experiment: phage competitive ELISA: rhLTα in solution competes with plate-coated LTα
Protocol: For the first round, phage were captured for 2 hours against 2 μg/ml plate-coated LTα at ambient temperature. The second and third rounds of selection were performed at ambient temperature by capturing phage for 30 minutes with 2 nM biotinylated LTα in solution phase, followed by capture on neutravidin-coated plates. The highest affinity clone was identified using a competitive ELISA. Constant concentrations of phage clones (normalized by solid-phase LTα binding OD) were incubated with increasing concentrations of LTα (0-50 nM) in solution before capture on a plate coated with 2 μg/ml LTα.

| Binder | relative binding (EC50 of the variant / EC50 of version 5) [4] [ratio] | IC50 [5] [nM] | also measured |
| --- | --- | --- | --- |
| humanized 3F12.v2 (antibody, IgG1, name in Kabat numbering, V domains shown, Built back from 3F12.v5; human kappa / IgG1 constant domains; also called I69F) VH: EVQLVESGGGLVQPGGSLRLSCAASGYTFSSYWIEWVRQAPGKGLEWVGEISPGSGSTNYNEEFKGRATFSADNSKNTLYLQMNSLRAEDTAVYYCADGYHGYWGQGTLVTVSS VL: DIQMTQSPSSLSASVGDRVTITCKSSQSLLYSTNQKNFLAWYQQKPGKAPKLLIYWASTRDSGVPSRFSGSGSGTDFTLTISSLQPEDFATYYCQQYYSYPRTFGQGTKVEIKR |  |  | Relative binding [1]: > 1000 fold down from the chimera |
| humanized 3F12.v4 (antibody, IgG1, name in Kabat numbering, V domains shown, Built back from 3F12.v5; human kappa / IgG1 constant domains; also called L78A) VH: EVQLVESGGGLVQPGGSLRLSCAASGYTFSSYWIEWVRQAPGKGLEWVGEISPGSGSTNYNEEFKGRATISADNSKNTAYLQMNSLRAEDTAVYYCADGYHGYWGQGTLVTVSS VL: DIQMTQSPSSLSASVGDRVTITCKSSQSLLYSTNQKNFLAWYQQKPGKAPKLLIYWASTRDSGVPSRFSGSGSGTDFTLTISSLQPEDFATYYCQQYYSYPRTFGQGTKVEIKR |  |  | Relative binding [1]: > 500 fold down from the chimera |
| humanized 2C8.v2 (antibody, IgG1, V domains shown, also called Version 2) VH: EVQLVESGGGLVQPGGSLRLSCAASGYTFTSYVIHWVRQAPGKGLEWVGYNNPYNDGTNYNEKFKGRATISSDKSKNTAYLQMNSLRAEDTAVYYCSRPTMLPWFAYWGQGTLVTVSS VL: DIQMTQSPSSLSASVGDRVTITCRASQAVSSAVAWYQQKPGKAPKLQIYSASHRYTGVPSRFSGSGSGTDFTLTISSLQPEDFATYYCQQHYSTPWTFGQGTKVEIKR |  |  | Kd [2]: 0.2 nM; kon [2]: 600000 M⁻¹ s⁻¹; ELISA IC50 ratio [3]: 1.7 ratio |
| 3F12 version 26 (3F12.v5 with S56A, CDR-H2) (antibody, IgG1, V domains shown, Alanine-scan variant of 3F12.v5; human kappa / IgG1) VH: EVQLVESGGGLVQPGGSLRLSCAASGYTFSSYWIEWVRQAPGKGLEWVGEISPGSGATNYNEEFKGRATFSADNSKNTAYLQMNSLRAEDTAVYYCADGYHGYWGQGTLVTVSS VL: DIQMTQSPSSLSASVGDRVTITCKSSQSLLYSTNQKNFLAWYQQKPGKAPKLLIYWASTRDSGVPSRFSGSGSGTDFTLTISSLQPEDFATYYCQQYYSYPRTFGQGTKVEIK | 1.07 |  |  |
| 3F12 version 27 (3F12.v5 with N58A, CDR-H2) (antibody, IgG1, V domains shown, Alanine-scan variant of 3F12.v5; human kappa / IgG1) VH: EVQLVESGGGLVQPGGSLRLSCAASGYTFSSYWIEWVRQAPGKGLEWVGEISPGSGSTAYNEEFKGRATFSADNSKNTAYLQMNSLRAEDTAVYYCADGYHGYWGQGTLVTVSS VL: DIQMTQSPSSLSASVGDRVTITCKSSQSLLYSTNQKNFLAWYQQKPGKAPKLLIYWASTRDSGVPSRFSGSGSGTDFTLTISSLQPEDFATYYCQQYYSYPRTFGQGTKVEIK | 1.7 |  |  |
| 3F12 version 28 (3F12.v5 with Y59A, CDR-H2) (antibody, IgG1, V domains shown, Alanine-scan variant of 3F12.v5; human kappa / IgG1) VH: EVQLVESGGGLVQPGGSLRLSCAASGYTFSSYWIEWVRQAPGKGLEWVGEISPGSGSTNANEEFKGRATFSADNSKNTAYLQMNSLRAEDTAVYYCADGYHGYWGQGTLVTVSS VL: DIQMTQSPSSLSASVGDRVTITCKSSQSLLYSTNQKNFLAWYQQKPGKAPKLLIYWASTRDSGVPSRFSGSGSGTDFTLTISSLQPEDFATYYCQQYYSYPRTFGQGTKVEIK | 2.73 |  |  |
| 3F12 version 29 (3F12.v5 with N60A, CDR-H2) (antibody, IgG1, V domains shown, Alanine-scan variant of 3F12.v5; human kappa / IgG1) VH: EVQLVESGGGLVQPGGSLRLSCAASGYTFSSYWIEWVRQAPGKGLEWVGEISPGSGSTNYAEEFKGRATFSADNSKNTAYLQMNSLRAEDTAVYYCADGYHGYWGQGTLVTVSS VL: DIQMTQSPSSLSASVGDRVTITCKSSQSLLYSTNQKNFLAWYQQKPGKAPKLLIYWASTRDSGVPSRFSGSGSGTDFTLTISSLQPEDFATYYCQQYYSYPRTFGQGTKVEIK | 2.31 |  |  |
| 3F12 version 30 (3F12.v5 with E61A, CDR-H2) (antibody, IgG1, V domains shown, Alanine-scan variant of 3F12.v5; human kappa / IgG1) VH: EVQLVESGGGLVQPGGSLRLSCAASGYTFSSYWIEWVRQAPGKGLEWVGEISPGSGSTNYNAEFKGRATFSADNSKNTAYLQMNSLRAEDTAVYYCADGYHGYWGQGTLVTVSS VL: DIQMTQSPSSLSASVGDRVTITCKSSQSLLYSTNQKNFLAWYQQKPGKAPKLLIYWASTRDSGVPSRFSGSGSGTDFTLTISSLQPEDFATYYCQQYYSYPRTFGQGTKVEIK | 1.78 |  |  |
| 3F12 version 31 (3F12.v5 with E62A, CDR-H2) (antibody, IgG1, V domains shown, Alanine-scan variant of 3F12.v5; human kappa / IgG1) VH: EVQLVESGGGLVQPGGSLRLSCAASGYTFSSYWIEWVRQAPGKGLEWVGEISPGSGSTNYNEAFKGRATFSADNSKNTAYLQMNSLRAEDTAVYYCADGYHGYWGQGTLVTVSS VL: DIQMTQSPSSLSASVGDRVTITCKSSQSLLYSTNQKNFLAWYQQKPGKAPKLLIYWASTRDSGVPSRFSGSGSGTDFTLTISSLQPEDFATYYCQQYYSYPRTFGQGTKVEIK | 1.93 |  |  |
| humanized 2C8.v12 (antibody, V domains shown, Human kappa / IgG1; also called Version 12; copies: 2 + 2) VH: EVQLVESGGGLVQPGGSLRLSCAASGYTFTSYVIHWVRQAPGKGLEWVGYNNPYNDGTNYNEKFKGRFTISSDKSKNTAYLQMNSLRAEDTAVYYCSRPTMLPWFAYWGQGTLVTVSS VL: DIQMTQSPSSLSASVGDRVTITCRASQAVSSAVAWYQQKPGKAPKLLIYSASHRYTGVPSRFSGSGSGTDFTLTISSLQPEDFATYYCQQHYSTPWTFGQGTKVEIKR |  |  | Kd [2]: 0.07 nM; ELISA IC50 ratio [3]: 1 ratio |
| humanized 2C8.v7 (antibody, V domains shown, Human kappa / IgG1; copies: 2 + 2) VH: EVQLVESGGGLVQPGGSLRLSCAASGYTFTSYVIHWVRQAPGKGLEWVGYNNPYNDGTNYNEKFKGRATISSDKSKNTAYLQMNSLRAEDTAVYYCSRPTMLPWFAYWGQGTLVTVSS VL: DIQMTQSPSSLSASVGDRVTITCRASQAVSSAVAWYQQKPGKAPKLLIYSASHRYTGVPSRFSGSGSGTDFTLTISSLQPEDFATYYCQQHYSTPWTFGQGTKVEIKR |  |  | Kd [2]: 0.4 nM; ELISA IC50 ratio [3]: 1.2 ratio |
| phage-displayed 2C8.v2 Fab, wild-type phagemid clone (Fab, V domains shown, also called wild-type 2C8.v2) VH: EVQLVESGGGLVQPGGSLRLSCAASGYTFTSYVIHWVRQAPGKGLEWVGYNNPYNDGTNYNEKFKGRATISSDKSKNTAYLQMNSLRAEDTAVYYCSRPTMLPWFAYWGQGTLVTVSS VL: DIQMTQSPSSLSASVGDRVTITCRASQAVSSAVAWYQQKPGKAPKLQIYSASHRYTGVPSRFSGSGSGTDFTLTISSLQPEDFATYYCQQHYSTPWTFGQGTKVEIKR |  | 3.14 |  |
| phage-displayed 2C8 Fab clone C12 (Fab, V domains shown) VH: EVQLVESGGGLVQPGGSLRLSCAASGYTFTSYVIHWVRQAPGKGLEWVGYNNPYNDGTNYNEKFKGRATISSDKSKNTAYLQMNSLRAEDTAVYYCSRPTMLPWFAYWGQGTLVTVSS VL: DIQMTQSPSSLSASVGDRVTITCRASQAVSSAVAWYQQKPGKAPKLQIYSASHRYTGVPSRFSGSGSGTDFTLTISSLQPEDFATYYCQEHYSTPWTFGQGTKVEIKR |  | 3.41 |  |
| phage-displayed 2C8 Fab clone D8 (Fab, V domains shown) VH: EVQLVESGGGLVQPGGSLRLSCAASGYTFTSYVIHWVRQAPGKGLEWVGYNNPYNDGTNYNEKFKGRATISSDKSKNTAYLQMNSLRAEDTAVYYCSRPTMLPWFAYWGQGTLVTVSS VL: DIQMTQSPSSLSASVGDRVTITCRASQAVSSAVAWYQQKPGKAPKLQIYSASHRYTGVPSRFSGSGSGTDFTLTISSLQPEDFATYYCQQFYSVPWTFGQGTKVEIKR |  | 137 |  |
| phage-displayed 2C8 Fab clone G2 (Fab, V domains shown) VH: EVQLVESGGGLVQPGGSLRLSCAASGYTFTSYVIHWVRQAPGKGLEWVGYNNPYNDGTNYNEKFKGRATISSDKSKNTAYLQMNSLRAEDTAVYYCSRPTMLPWFAYWGQGTLVTVSS VL: DIQMTQSPSSLSASVGDRVTITCRASQAVSSAVAWYQQKPGKAPKLQIYSASHRYTGVPSRFSGSGSGTDFTLTISSLQPEDFATYYCQQYYSTPWTFGQGTKVEIKR |  | 4.51 |  |
| phage-displayed 2C8 Fab clone G7 (Fab, V domains shown, also called 2C8 clone G7) VH: EVQLVESGGGLVQPGGSLRLSCAASGYTFTSYVIHWVRQAPGKGLEWVGYNNPYNDGTNYNEKFKGRATISSDKSKNTAYLQMNSLRAEDTAVYYCSRPTMLPWFAYWGQGTLVTVSS VL: DIQMTQSPSSLSASVGDRVTITCRASQAVSSAVAWYQQKPGKAPKLQIYSASHRYTGVPSRFSGSGSGTDFTLTISSLQPEDFATYYCQENYSTPWTFGQGTKVEIKR |  | 0.57 |  |
| phage-displayed 2C8 Fab clone G12 (Fab, V domains shown) VH: EVQLVESGGGLVQPGGSLRLSCAASGYTFTSYVIHWVRQAPGKGLEWVGYNNPYNDGTNYNEKFKGRATISSDKSKNTAYLQMNSLRAEDTAVYYCSRPTMLPWFAYWGQGTLVTVSS VL: DIQMTQSPSSLSASVGDRVTITCRASQAVSSAVAWYQQKPGKAPKLQIYSASHRYTGVPSRFSGSGSGTDFTLTISSLQPEDFATYYCQKTFSTPWTFGQGTKVEIKR |  | 5.34 |  |
| phage-displayed 2C8 Fab clone H6 (Fab, V domains shown, also called 2C8 clone H6) VH: EVQLVESGGGLVQPGGSLRLSCAASGYTFTSYVIHWVRQAPGKGLEWVGYNNPYNDGTNYNEKFKGRATISSDKSKNTAYLQMNSLRAEDTAVYYCSRPTMLPWFAYWGQGTLVTVSS VL: DIQMTQSPSSLSASVGDRVTITCRASQAVSSAVAWYQQKPGKAPKLQIYSASHRYTGVPSRFSGSGSGTDFTLTISSLQPEDFATYYCQEVYSTPWTFGQGTKVEIKR |  | 1.1 |  |
| phage-displayed 2C8 Fab clone H9 (Fab, V domains shown) VH: EVQLVESGGGLVQPGGSLRLSCAASGYTFTSYVIHWVRQAPGKGLEWVGYNNPYNDGTNYNEKFKGRATISSDKSKNTAYLQMNSLRAEDTAVYYCSRPTMLPWFAYWGQGTLVTVSS VL: DIQMTQSPSSLSASVGDRVTITCRASQAVSSAVAWYQQKPGKAPKLQIYSASHRYTGVPSRFSGSGSGTDFTLTISSLQPEDFATYYCQQHYYTPWTFGQGTKVEIKR |  | 3.8 |  |
